Results as given in paper PMC2290040 (The Journal of Cell Biology, 1992).

Legend:
Assay in all cases: co-IP
[1] = target: T1, RHL-1 truncated at the carboxy terminus, product of 204 aa (rat, UniProt P02706 1-204, [35S]methionine label)
T1 sequence (looked up): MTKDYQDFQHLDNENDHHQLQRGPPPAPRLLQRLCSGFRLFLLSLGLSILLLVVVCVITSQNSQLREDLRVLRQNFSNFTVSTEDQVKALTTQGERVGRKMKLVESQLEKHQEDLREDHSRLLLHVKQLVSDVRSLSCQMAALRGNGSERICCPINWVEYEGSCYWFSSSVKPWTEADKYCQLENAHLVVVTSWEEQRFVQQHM

[2] = target: T2, RHL-1 truncated at the carboxy terminus, product of 267 aa (rat, UniProt P02706 1-267, [35S]methionine label)
T2 sequence (looked up): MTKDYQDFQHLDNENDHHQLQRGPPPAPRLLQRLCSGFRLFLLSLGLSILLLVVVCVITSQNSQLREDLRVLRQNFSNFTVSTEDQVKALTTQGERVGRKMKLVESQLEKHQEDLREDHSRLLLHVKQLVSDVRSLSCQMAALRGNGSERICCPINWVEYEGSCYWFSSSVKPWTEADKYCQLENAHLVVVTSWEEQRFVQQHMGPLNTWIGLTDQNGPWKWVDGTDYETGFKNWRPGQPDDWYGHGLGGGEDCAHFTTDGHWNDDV

[3] = target: T3, RHL-1 truncated at the carboxy terminus, product of 260 aa (rat, UniProt P02706 1-260, [35S]methionine label)
T3 sequence (looked up): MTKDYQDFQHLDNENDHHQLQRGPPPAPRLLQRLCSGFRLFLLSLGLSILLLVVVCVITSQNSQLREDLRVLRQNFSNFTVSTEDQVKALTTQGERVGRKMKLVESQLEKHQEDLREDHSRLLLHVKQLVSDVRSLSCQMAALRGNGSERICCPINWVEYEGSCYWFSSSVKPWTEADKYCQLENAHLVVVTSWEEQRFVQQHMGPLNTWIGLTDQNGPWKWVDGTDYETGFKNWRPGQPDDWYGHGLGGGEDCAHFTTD

- percent of RHL-2/3 coimmunoprecipitated, relative to full-length RHL-1 [1]: 88%
- percent of RHL-2/3 coimmunoprecipitated, relative to full-length RHL-1 [2]: 100%
- percent of RHL-2/3 coimmunoprecipitated, relative to full-length RHL-1 [3]: 100%
B1: rat hepatic lectin subunit RHL-2/3 (subunit of the rat asialoglycoprotein receptor), full length (natural protein, UniProt P08290 1-301, looked up)
chain: MEKDFQDIQQLDSEENDHQLIGDEEQGSHVQNLRTENPRWGGQPPSRPFPQRLCSKFRLSLLALAFNILLLVVICVVSSQSMQLQKEFWTLKETLSNFSTTTLMEFKALDSHGGSRNDNLTSWETILEKKQKDIKADHSTLLFHLKHFPLDLRTLTCQLAFFLSNGTECCPVNWVEFGGSCYWFSRDGLTWAEADQYCQMENAHLLVINSREEQEFVVKHRGAFHIWIGLTDKDGSWKWVDGTEYRSNFKNWAFTQPDNWQGHEEGGSEDCAEILSDGLWNDNFCQQVNRWACERKRDITY
modifications: [35S]methionine label; glycosylated by the microsomes
